Source: article PMC10319324, “Ηigh-resolution structure of mammalian PI31–20S proteasome complex reveals mechanism of proteasome inhibition” (The Journal of Biological Chemistry, 2023)

B1: β5 subunit of the bovine 20S proteasome (natural protein, UniProt Q32KL2 60-263, looked up)
chain: TTTLAFKFRHGVIVAADSRATAGAYIASQTVKKVIEINPYLLGTMAGGAADCSFWERLLARQCRIYELRNKERISVAAASKLLANMVYQYKGMGLSMGTMICGWDKRGPGLYYVDSEGNRISGATFSVGSGSVYAYGVMDRGYSYDLEVEEAYDLARRAIYQATYRDAYSGGSVSLYHVREDGWIRVSSDNVADLHDKYSGSTH
notes: Stood in the assay as a subunit of the assembled 20S proteasome; also called β5 active site; β5 catalytic site; source: purified from bovine red blood cells, as part of the 20S proteasome
B2: human PI31 C-terminal domain, residues 152-271 (domain or fragment, UniProt Q92530 152-271, looked up)
chain: SSPHREFPPATAREVDPLRIPPHHPHTSRQPPWCDPLGPFVVGGEDLDPFGPRRGGMIVDPLRSGFPRALIDPSSGLPNRLPPGAVPPGARFDPFGPIGTSPPGPNPDHLPPPGYDDMYL
B3: human PI31 V6R dimerization mutant (natural protein, UniProt Q92530 1-271, looked up)
chain: MAGLERLFASAAPAITCRQDALVCFLHWEVVTHGYFGLGVGDQPGPNDKKSELLPAGWNNNKDLYVLRYEYKDGSRKLLVKAITVESSMILNVLEYGSQQVADLTLNLDDYIDAEHLGDFHRTYKNSEELRSRIVSGIITPIHEQWEKANVSSPHREFPPATAREVDPLRIPPHHPHTSRQPPWCDPLGPFVVGGEDLDPFGPRRGGMIVDPLRSGFPRALIDPSSGLPNRLPPGAVPPGARFDPFGPIGTSPPGPNPDHLPPPGYDDMYL
notes: PI31, product of the PSMF1 gene, human; point mutation V6R in the FP domain, made on the pET28a(+)-HisPI31^wt template; also called hPI31^V6R; source: E. coli BL21 Star (DE3), purified (Ni-NTA); not shown: His tag, N-terminal, kept
B4: β2 subunit of the bovine 20S proteasome (natural protein, UniProt Q2TBP0 44-277, looked up)
chain: TTIAGVVYKDGIVLGADTRATEGMVVADKNCSKIHFISPNIYCCGAGTAADTDMTTQLISSNLELHSLSTGRLPRVVTANRMLKQMLFRYQGYIGAALVLGGVDVTGPHLYSIYPHGSTDKLPYVTMGSGSLAAMAVFEDKFRPDMEEEEAKKLVSEAIAAGIFNDLGSGSNIDLCVISKSKLDFLRPYSVPNKKGTRFGRYRCEKGTNAVLTEKVTTLEIEVLEETVQTMDTS
notes: Stood in the assay as a subunit of the assembled 20S proteasome; also called β2 active site; β2 catalytic site; source: purified from bovine red blood cells, as part of the 20S proteasome

Experiments:
[1] = biological target: T1, recombinant wildtype human PI31 (Proteasome Inhibitor of 31,000 Da) (human, UniProt Q92530 1-271); assay: cryo-EM structure; purified hPI31 and bovine 20S mixed at a molar ratio of 5:1, 37 °C for 1 h in 20 mM Tris, pH 7.5, 5 mM MgCl2, 100 mM KCl, 1 mM DTT; latent closed-gate 20S; C1 map at 2.54 Å; settings: both partners purified
T1 construct: PI31, product of the PSMF1 gene, human; The methods name a pET28a(+) vector with N-terminally tagged wildtype hPI31 and 'His-PI31 (wildtype)' for mass photometry; Exists in a monomer-dimer equilibrium; also called hPI31; hPI31^WT; source: E. coli, purified; not shown: His tag, N-terminal, kept
T1 sequence (looked up): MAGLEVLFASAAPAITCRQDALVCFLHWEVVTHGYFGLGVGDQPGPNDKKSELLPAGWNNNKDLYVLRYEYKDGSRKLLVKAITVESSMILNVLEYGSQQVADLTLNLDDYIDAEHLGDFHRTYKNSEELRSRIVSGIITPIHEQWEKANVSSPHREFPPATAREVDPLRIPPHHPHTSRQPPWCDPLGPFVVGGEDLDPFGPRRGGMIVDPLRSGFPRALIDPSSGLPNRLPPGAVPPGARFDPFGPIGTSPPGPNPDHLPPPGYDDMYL

bovine 20S proteasome = bovine 20S proteasome (bovine, UniProt Q2YDE4 1-246; Q3T0Y5 1-234; Q3ZCK9 1-261; Q3ZBG0 1-248; Q5E987 1-241; Q3T0X5 …); assay: cell-based or functional assay
[2] = biological target: the molecule itself; assay: mass photometry; monomer to dimer; His-PI31 diluted to 40 nM total monomer in PBS, recorded immediately after mixing (TwoMP, Refeyn); peaks at 36 to 37 and 56 to 59 kDa

| Binder | binding result [1] | [monomer] at 50% inhibitory activity against SDS-activated 20S (50 nM), PI31 up to 10-fold molar excess (bovine 20S proteasome) | inhibition of the catalytic activity of each subunit type (β1, β2, β5 peptide substrates), PI31 at 10- to 20-fold molar excess (bovine 20S proteasome) | [monomer]/[M]T ratio [2] |
| --- | --- | --- | --- | --- |
| B1 | binds |  |  |  |
| B2 |  | 200 nM | > 95% |  |
| B3 |  | 108 nM |  | 0.54 |
| B4 | binds |  |  |  |
